Data published in patent US7109015B2, “Removal of N-terminal methionine from proteins by engineered methionine aminopeptidase” (Academia Sinica, priority 2004, dated 2006).
Residue numbers refer to the chain shown, from its start. Numbers in names are those of the source. Where two headings read alike, the source gives them in different places. Marks after values point to notes of the source that are not given here.

Key:
[1] = tested on: Met-tagged onconase; test: In vivo catalytic activity of MetAPs co-expressed with Met-tagged onconase in E. coli BL21(DE3); N-terminus by Edman degradation; type: cell-based; settings: in vivo in E. coli
Source text: Residues Tyr168, Met206 and Gln233 in the putative substrate-binding site of E. coli MetAP were mutated by site-directed mutagenesis based on the crystal structure and amino acid sequence alignment of MetAPs (Ben-Bassat et al., 1987; Lowther et al., 1999; Walker et al., 1999). For the expression of secretory ribonucleases, the ribonuclease gene was cloned and expressed as described previously (Huang et al., 1998).
Most of the co-expressed target protein, e.g., onconase or RC-RNase L1, existed in insoluble cell lysate. They were denatured, renatured and purified as described previously (Liao et al., 2003). The purified ribonucleases were stored in 20 mM sodium phosphate, pH 7.0, for pyroglutamate formation at the N-terminus. Alternatively, the ribonuclease secreted into culture medium through pe1B system was concentrated and purified to electrophoretical homogeneity at a yield of 1˜5 mg per 1 liter of culture (Huang et al., 1998).

[2] = tested on: synthetic oligopeptides; type: biochemical; settings: for Specific activity (unit/mg): 4 mM oligopeptide, pH 7.5, 37° C.
Protocol: The oligopeptide substrates used in this experiment were synthesized on the 432A Synergy peptide synthesizer (Applied Biosystems, Foster, Calif., USA). The enzymatic activity of purified MetAP was assayed as described by Ben-Bassat et al., 1987. Briefly, the diluted MetAP enzyme in 10 μl was added to 90 μl of the substrate solution containing 4 mM oligopeptide, 0.1 M potassium phosphate buffer, pH 7.5 and 0.2 mM CoCl2, incubated at 37° C. for 10 min and stopped in boiling water for 2 min. After addition of 0.9 ml of color development mixture containing 0.2 mg of L-amino acid oxidase, 0.03 mg of horseradish peroxidase and 0.2 mg of o-dianisidine in 0.1 M Tris-HCl, pH 7.4, the mixtures were incubated for 10 min at 37° C., and the optical density at 440 nm was recorded. One unit of activity is defined as 1 μmol of amino acids produced per min under the assay conditions and the pure Met was used as standard. The N-terminal residues of the MetAP-treated oligopeptide were further verified by Edman degradation.

[3] = target: Met-tagged onconase with different penultimate residue (Escherichia coli, UniProt P0AE18); settings: adapted from Hirel et al., 1989, cited from earlier work
[4] = tested on: RC-RNase4; test: In vivo Met removal, co-expression in E. coli, RC-RNase 4 substrate; type: cell-based, Rana catesbeiana; settings: substrate MAAWA (SEQ ID NO:15)-RC4; solubility −
Protocol: The MetAP was expressed alone or co-expressed with a target protein, i.e., onconase and RC-RNaseL1, in E. coli BL21 (DE3) in the presence of 0.5 mM IPTG at 37° C.
Proteins in the cell pellet or in the soluble fraction were separated by 13.3% SDS-PAGE and contact-transferred to ProBlott™ membrane (Applied Bioystems) in transfer buffer (10 mM Tris-HCl, pH 7.5, 50 mM NaCl, 2 mM EDTA, 0.5 mM 2-mercaptoethanol) overnight. The five N-terminal residues of the transferred protein were determined by Edman degradation. The percentage of Met removal was calculated by dividing the amount of proteins initiated with the penultimate residue with the amount of total proteins (including proteins initiated with the penultimate residue and unprocessed protein initiated with Met) after the first degradation cycle. In theory, this percentage should remain the same after each degradation cycle. Therefore, in order to avoid experimental variation, the same calculation was made from five consecutive degradation cycles, e.g., M, Q, N, W and L for onconase. The efficiency of Met removal is reported as the mean values of at least three cycles.

[5] = E. coli MetAP mutations; Chiu et al. 1999; cited from earlier work
[6] = substrate MAA-Onc, listed as wild type E. coli MetAP

B1: MetAP-Q233G: E. coli MetAP with Gln233 replaced by Gly (protein, UniProt P0AE18 2-264, looked up, variant Q233G)
Methionine aminopeptidase: AISIKTPEDIEKMRVAGRLAAEVLEMIEPYVKPGVSTGELDRICNDYIVNEQHAVSACLGYHGYPKSVCISINEVVCHGIPDDAKLLKDGDIVNIDVTVIKDGFHGDTSKMFIVGKPTIMGERLCRITQESLYLALRMVKPGINLREIGAAIQKFVEAEGFSVVREYCGHGIGRGFHEEPQVLHYDSRETNVVLKPGMTFTIEPMVNAGKKEIRTMKDGWTVKTKDRSLSAGYEHTIVVTDNGCEILTLRKDDTIPAIISHDE
Catalytic activity (%): removal of N-terminal Met ([1]; substrate MQD-Onc): 74%

B2: MetAP-Q233T: E. coli MetAP with Gln233 replaced by Thr (protein, UniProt P0AE18 2-264, looked up, variant Q233T)
Methionine aminopeptidase: B1 Methionine aminopeptidase with G232T
Catalytic activity (%): removal of N-terminal Met ([1]; substrate MQD-Onc): 88%

B3: MetAP-YMQ: wild type E. coli Met aminopeptidase (SEQ ID NO:1) (protein, listed as Escherichia coli)
chain: MAISIKTPEDIEKMRVAGRLAAEVLEMIEPYVKPGVSTGELDRICNDYIVNEQHAVSACLGYHGYPKSVCISINEVVCHGIPDDAKLLKDGDIVNIDVTVIKDGFHGDTSKMFIVGKPTIMGERLCRITQESLYLALRMVKPGINLREIGAAIQKFVEAEGFSVVREYCGHGIGRGFHEEPQVLHYDSRETNVVLKPGMTFTIEPMVNAGKKEIRTMKDGWTVKTKDRSLSAQYEHTIVVTDNGCEILTLRKDDTIPAIISHDE
In vitro catalytic activity ([2]; oligopeptides ranging from tetra- to dodecapeptides with Ala at the penultimate site): high catalytic activity
Specific activity (unit/mg) ([2]; substrate MADY (SEQ ID NO:7)): 138 ± 8 unit/mg
Specific activity (unit/mg) ([2]; substrate MADYLT (SEQ ID NO:8)): 138 ± 6 unit/mg
Specific activity (unit/mg) ([2]; substrate MQDYLT (SEQ ID NO:9)): 0.43 ± 0.01 unit/mg
Specific activity (unit/mg) ([2]; substrate […] (SEQ ID NO:5)): 85 ± 13 unit/mg
Specific activity (unit/mg) ([2]; substrate […] (SEQ ID NO:6)): 0.62 ± 0.08 unit/mg
Catalytic activity (%): efficiency of Met removal by wild type MetAP ([3]; substrate MAD-Onc): 100%
Catalytic activity (%): efficiency of Met removal by wild type MetAP ([3]; substrate MDD-Onc): ~20%
Catalytic activity (%): efficiency of Met removal by wild type MetAP ([3]; substrate MED-Onc): 0%
Catalytic activity (%): efficiency of Met removal by wild type MetAP ([3]; substrate MFD-Onc): 0%
Catalytic activity (%): efficiency of Met removal by wild type MetAP ([3]; substrate MGD-Onc): 100^c %
Catalytic activity (%): efficiency of Met removal by wild type MetAP ([3]; substrate MHD-Onc): 0%
Catalytic activity (%): efficiency of Met removal by wild type MetAP ([3]; substrate MID-Onc): ~20%
Catalytic activity (%): efficiency of Met removal by wild type MetAP ([3]; substrate MKD-Onc): 0%
Catalytic activity (%): efficiency of Met removal by wild type MetAP ([3]; substrate MLD-Onc): ~20%
Catalytic activity (%): efficiency of Met removal by wild type MetAP ([3]; substrate MMD-Onc): 0%
Catalytic activity (%): efficiency of Met removal by wild type MetAP ([3]; substrate MND-Onc): ~20%
Catalytic activity (%): efficiency of Met removal by wild type MetAP ([3]; substrate MPD-Onc): 80–90%
Catalytic activity (%): efficiency of Met removal by wild type MetAP ([3]; substrate MQD-Onc): 0%
Catalytic activity (%): efficiency of Met removal by wild type MetAP ([3]; substrate MRD-Onc): 0%
Catalytic activity (%): efficiency of Met removal by wild type MetAP ([3]; substrate MSD-Onc): 80–90%
Catalytic activity (%): efficiency of Met removal by wild type MetAP ([3]; substrate MTD-Onc): 80–90%
Catalytic activity (%): efficiency of Met removal by wild type MetAP ([3]; substrate MVD-Onc): 80–90%
Catalytic activity (%): efficiency of Met removal by wild type MetAP ([3]; substrate MWD-Onc): 0%
Catalytic activity (%): efficiency of Met removal by wild type MetAP ([3]; substrate MWD-Onc, listed as wild type MetAP): inactive
Catalytic activity (%): efficiency of Met removal by wild type MetAP ([3]; substrate MYD-Onc): 0%
Catalytic activity (%): efficiency of Met removal by wild type MetAP ([3]; substrate MYD-Onc, listed as wild type MetAP): inactive
Catalytic activity (%): percent of penultimate residue removed ([1]; substrate MAA-Onc): 77%
Catalytic activity (%): removal of N-terminal Met ([1]; substrate MAA-Onc): 85%
Catalytic activity (%): percent of penultimate residue removed [1, 6]: removed
Catalytic activity (%): removal of N-terminal Met [1, 6]: removed
Catalytic activity (%): percent of penultimate residue removed ([1]; substrate MAG-Onc): 63%
Catalytic activity (%): removal of N-terminal Met ([1]; substrate MAG-Onc): 80%
Catalytic activity (%): removal of N-terminal Met ([1]; substrate MQD-Onc, listed as wild type MetAP): failed altogether
Catalytic activity (%): removal of N-terminal Met ([1]; substrate MQD-Onc, listed as wild type enzyme): no activity
Catalytic activity (%): percent of penultimate residue removed [4]: removed
Catalytic activity (%): removal of N-terminal Met [4]: removed

B4: MetAP-M206G: E. coli MetAP with Met206 replaced by Gly (protein, UniProt P0AE18 2-264, looked up, variant M206G)
Methionine aminopeptidase: B1 Methionine aminopeptidase with M205G, G232Q
Catalytic activity (%): removal of N-terminal Met ([1]; substrate MQD-Onc): 85%

B5: MetAP-M206T: E. coli MetAP with Met206 replaced by Thr (protein, UniProt P0AE18 2-264, looked up, variant M206T)
Methionine aminopeptidase: B1 Methionine aminopeptidase with M205T, G232Q
Catalytic activity (%): removal of N-terminal Met ([1]; substrate MQD-Onc): 86%

B6: MetAP-M206V: E. coli MetAP with Met206 replaced by Val (protein, UniProt P0AE18 2-264, looked up, variant M206V)
Methionine aminopeptidase: B1 Methionine aminopeptidase with M205V, G232Q
Catalytic activity (%): removal of N-terminal Met ([1]; substrate MQD-Onc): 61%

B7: MetAP-*GG (protein)
chain: B1 Methionine aminopeptidase with M205G
Specific activity (unit/mg) ([2]; substrate MADY (SEQ ID NO:7)): 0.51 ± 0.01 unit/mg
Specific activity (unit/mg) ([2]; substrate MADYLT (SEQ ID NO:8)): 0.29 ± 0.01 unit/mg
Specific activity (unit/mg) ([2]; substrate MQDYLT (SEQ ID NO:9)): 0.29 ± 0.02 unit/mg
Specific activity (unit/mg) ([2]; substrate […] (SEQ ID NO:5)): 3.28 ± 0.04 unit/mg
Specific activity (unit/mg) ([2]; substrate […] (SEQ ID NO:6)): 0.50 ± 0.02 unit/mg
Catalytic activity (%): removal of N-terminal Met ([1]; substrate MID-Onc): 5%
Catalytic activity (%): removal of N-terminal Met ([1]; substrate MLD-Onc): 18%
Catalytic activity (%): removal of N-terminal Met ([1]; substrate MQD-Onc): 96%

B8: MetAP-*TT (protein)
chain: B1 Methionine aminopeptidase with M205T, G232T
Specific activity (unit/mg) ([2]; substrate MADY (SEQ ID NO:7)): 0.38 ± 0.03 unit/mg
Specific activity (unit/mg) ([2]; substrate MADYLT (SEQ ID NO:8)): 0.12 ± 0.01 unit/mg
Specific activity (unit/mg) ([2]; substrate MQDYLT (SEQ ID NO:9)): 0.13 ± 0.01 unit/mg
Specific activity (unit/mg) ([2]; substrate […] (SEQ ID NO:5)): 1.00 ± 0.08 unit/mg
Specific activity (unit/mg) ([2]; substrate […] (SEQ ID NO:6)): 0.25 ± 0.01 unit/mg
Catalytic activity (%): removal of N-terminal Met ([1]; substrate MQD-Onc): 93%

B9: C59S: E. coli MetAP mutation in the putative substrate-binding pocket (protein, UniProt P0AE18 2-264, looked up, variant C59S)
Methionine aminopeptidase: B1 Methionine aminopeptidase with C58S, G232Q
Catalytic activity, % activity of the wild type [5]: do not reduce catalytic activity

B10: Y62F: E. coli MetAP mutation in the putative substrate-binding pocket (protein, UniProt P0AE18 2-264, looked up, variant Y62F)
Methionine aminopeptidase: B1 Methionine aminopeptidase with Y61F, G232Q
Catalytic activity, % activity of the wild type [5]: do not reduce catalytic activity

B11: Y65F: E. coli MetAP mutation in the putative substrate-binding pocket (protein, UniProt P0AE18 2-264, looked up, variant Y65F)
Methionine aminopeptidase: B1 Methionine aminopeptidase with Y64F, G232Q
Catalytic activity, % activity of the wild type [5]: do not reduce catalytic activity
